Data taken from a protein production outcome set (Wang et al. 2014).

Test: label from the status in PepcDB records
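Further: failed if final PepcDB status was selected cloned or expressed and not failed if soluble or beyond.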

Sequence	protein production
MIIPMNNKHPLPTPLVSIIIPVYNVEKYLYRCVKSILSQDYYDYEIILVDDGSTDGSGMICDELTEQHGHISVIHKPNGGQGSARNAGLNHAKGKYIWFIDSDDYISPHSLSVIMSQITQGDFDALFFPYIKSNGNILIGEAVGKYHAGVYRGQQLLLEGLVNMSMCTIVSLRSRWIDNRIFFREDIHFEDFEINPRVLKFLERAIFLDSNIIPYIYYTRLGSTMNQLDPQKRMRQTEDFLRIEKSWKEWFNLDSPEPNSYDMLMLRTGTNMLHRNLLNFVRNSNFSISTKLKLYAQYRKKGVFSWFYNGYRRDPYVGCTSVRVFWNTIGRSYILFSLFSIVEEIWKKIRK	failed
MITTTIFPGRYVQGAGAINILEEELSRFGERAFVVIDDFVDKNVLGENFFSSFTKVRVNKQIFGGECSDEEIERLSGLVEEETDVVVGIGGGKTLDTAKAVAYKLKKPVVIVPTIASTDAPCSALSVIYTPNGEFKRYLFLPRNPDVVLVDTEIVAKAPARFLVAGMGDALATWFEAESCKQKYAPNMTGRLGSMTAYALARLCYETLLEYGVLAKRSVEEKSVTPALEKIVEANTLLSGLGFESGGLAAAHAIHNGLTVLENTHKYLHGEKVAIGVLASLFLTDKPRKMIEEVYSFCEEVGLPTTLAEIGLDGVSDEDLMKVAEKACDKNETIHNEPQPVTSKDVFFALKAADRYGRMRKNLT	not failed
DKDNTDEPKETAKALGKLASESKKEILLESAYLIFDDNQLKGWQALINTGVEIKALTNSMASNDLTTNHSGYAGRRQDMLEHGIQLYELKPETELCEESTKDVSKCAPILPYGLHAKSAVFDDKIASIGSFNFNLRSTYLNTESILIIENQKIAEQLTQDIEHAMDEENSWHLKLQEGDVRWYSGDKSWESEPETGRWERFQSGFLQLLPIE	failed
MNIKINEKWREVKENCTVYALKNEEFPDSHVIVLNGFPLVEDKKLKDGDRIVFIKKGIMPNKEELEELMVSRHTPGIHEKLKRIKVLIAGCGGLGSNIAISLGRIGVGSISLVDFDIVEPSNLNRQQYYIEDIGEFKVTALKRNLIRINPFIKIEALNLKLSEDNMGILQGADIIIEAFDNPDYKALLANYVLGNMKDKFLISSSGMAGFYDSNLIKTKQITDKFYICGDLVNEAKEGCGLMAPRVAICANHMANLVIDIAINKIEFQK	failed
MRPGQELAGPGLRQPRTGVPRRRHRRLPRRHRPAIVSLPPSYGPSMPDAHPPPSPSKDRSFAARVQTGALVIIAFAVVLALLVQAQFILISLAVSVILFSLTSDAIALVARVRFGPVKIPNWLASSLALLLLAIVLLSLAAVIVSQVNTVLLTALSYSEQAPAAVAAIFSWLGKDAEEAVLSSLRAVEISGYLRTLAAQAGTLMQATVLVILFVGFLFAERVWFPVKLLNLFGNPDRARRVEEIVSSIMHRVNRYLLVKTLVSAITGLLVWGVAMAFGLDLAAPLGMLTFILNFIPSLGSIVATLLIVLVTFVQTVDVSTALSVLALVGVIQFICGNILDPMLMGRALQLSSFGIIISLAFWGAIWGIPGMFLSVPIMVGLMIVCAETEALRPIAVLLSREGLAAPMHPERPAAPPRAEPETETVASRRVGL	failed
MGLFLEDLAVGDRFDSARHRVEAAAIKAFAGEFDPQPFHLDEEAARHSLFGGLAASGWHTAAITMRLLVTSGLPLAQGIIGAGTELSWPNPTRPGDELHVETTVLAITPSKSRPDRAIVTCQSDTLNQRGEVVQRSTAKVVVFRRPLEHHHHHH	not failed
MSETVTQVNETTQQIVRSRTCGLKDFYIALVQSNTATAYTAGTPVKLARAIKAKIDEKWTSEKIYSDDNTEEVITSYEGTDVELEINALAPQDRVILFGQLYEKGFLRKSSDDRAPEVAVGWRERKLNGKYEFKWLYVGKFAEGISEEASTLEHHHHHH	not failed
MNKNLSEKMKIAFDIKLKNFGNKIEFAYPNQTLALSTTSNQCSLKCAHCNGHYLNNMVPIEEYEEKVQSRNITSFLLSGGCSYEGDVPINTHINTIKNLKEQGYRLNAHLGLMDKDSIVELCKYLDIVSFDLVFDDETIREVYKMKKSKEDYIEVYNTIQEHTEVAPHICIGLKGGQIKGEYEIIEYLQKNPPNKLTFIVLIPTKGTEYENVEPPELEGVADILCEARINLPDTEINLGCMRPRGVYRKELDQLSIMCGVNRIVLPSRSAKNKAIEMNMTINECKECCVL	failed
MGVYPPSEDSFLIIEYASCSGKAIEIGCGTGIVSICFLKRGCDIEAVDISDLAVECAKDNASRNGLTLKVYRSDLFSGVSGTYDTILFNAPYIPVEGEDASWSGGRNLEVVSRFLGQAREHLSASGQIYIVLSDLTDNEGMFRMMGYDYFIIKKISFEFEAIVLYKLTLKALEHHHHHH	failed
MDWAQLLPSMKTRTGVATSPPPARSFYCHPSARKNPLHLHLITDAVARNILETLFRTWMVPAVVVSFYDAEELKPLVSWIPNNHYSGLYGLMKLVLPSILPPSLARVIVLDTDVTFSSDIVELWALFDHFSDKQVVGLVENQSDWYLGNLWKNHRPWPALGRGFNTGVILLWLDRLQQTGWEQMWKVTAKRELLTLMATSLADQDIFNAVIKEHPHLVHPLPCVWNVQLSDHTRAERCYLEAADLKVIHWNSPKKLRVKNKHAEFFRNLHLTFLGYDGKLLRRELFGCPNQFPPGAEQLQQALTQLDEEEPCFEFRQQQLTVHRVHITFLPHQPPPPQPHDVTLVAQLSMDRLQMLEALCRHWPGPMSLALYLTDEEAQQFLHFVETSPVLSMRKDVAYHVVYRDGPLYPVNQLRNVALAQALTPYVFLSDIDFLPAYSLYDYLRASIEQLELDSRRKTALVVPAFETLHYRFSFPNSKAELLTLLDAGSLHTFRYHEWPQGHSSTDYSRWREAQAPYSVQWSADYEPYVVVPRDCPRYDPRFVGFGWNKVAHIIELDAQEYEFLVLPEAFSIHLPHAPSLDISRFRSSPTYRNCLQALKEEFHQDLSRRYGSAALKYLTALQQARSRA	failed
MKICLIDETGTGDGALSVLAARWGLEHDEDNLMALVLTPEHLELRKRDEPKLGGIFVDFVGGAMAHRRKFGGGRGEAVAKAVGIKGDYLPDVVDATAGLGRDAFVLASVGCRVRMLERNPVVAALLDDGLARGYADAEIGGWLQERLQLIHASSLTALTDITPRPQVVYLDPMFPHKQKSALVKKEMRVFQSLVGPDLDADGLLEPARLLATKRVVVKRPDYAPPLANVATPNAVVTKGHRFDIYAGTPVLEHHHHHH	not failed
MRISAWLLCSLSFIAPLSWAESSPADIAAQKQQQILFFNHDDRDIVPDTAVWPWQAIGQLETASGNLCTATLISPHLALTAGHCVVTPPKGEIDNPVALRFLATENGWRYETTEIEALANKTLAKKLKADGEGWIVPPSAAPLDYALIRLKQTPPGIRPLPLWQGSRQELMQALKDNGQRVTQAGYPEDHQETLYRHQDCLITGWVHAAVMAHQCDTLPGDSGSPLMLNSAAGWVLMGIQSSAPDASERDRADNRAVSVTAIRQQLETLAKLSSPKPGSPKLSPK	failed
MDPNKVEISRLEALPQDLLREIVAKIGVKSAEDYHNCILSCKELGASANDERVLKTLNLALLVKKPLSCRKHLLIMKKCLANNNPDAHYIKGIIWYFNLDHCDVDLHHIGIAANGGQKEAIYMYAMLLLCRGRTEEGKTYMSQLEWAKTPPWLKRVGNKSKLH	failed
MITIDPEYFEILKEFGAERVVRCYQCGTCTGICPVSTTDASFPRKPVLLSRFGVGEVIENFEEAWLCLSCNLCTEFCPRDVKPSETMLAIKRVLVENGKTPPYIRDFFQNIMKQKNPWGIGKFKREDWVKKSDVEVPKVKDNPEYEWLWFVGCAHAFENRNINVTLKMARILSDLGINFATLGREEGCCGNDVRRAGEEGLFEVLMEENIKTFGKYGVQRLFTHSPHCFNAFKNWYEGYEVKLFLEILRDAIKSGKLELKNKLDLTVTYHDSCYLGRYNGIYDLPREVLKLIPGVELVEMKSNRRMSLCCGGGAGNIVGDYPGEIQPARVRAQEAAETGANVLAVACPFCLLMLEDGVKTEKLDKQLVVKDIVELVYEAAYGEE	failed
MKTSQEELLPATRRALLHRIAVAQAEGRAPSLAAAVVRGGQTVWYGSRTSVDGHAPDENVQYRIGSITKTFTAVLVLRLRDEGVLDLGDPLEKHLPGTGAGEATIAELLAHTGGLAAESPAPWWERTPGSLRPELADVLGELPLRHPVGRRHHYSNPGYTLLGALVEELRGAPWEEVLRREVLEPLGMRRTSGDPRAPHAGGWAVHPWADVMLPEPAEDLGRMAPAGQLWSTTGDLARFAVFLAQGDERVLSADSVREMRTPAAPAEAADVMSGSAYGLGMQLQYRDGRLLVGHSGSLPGFLANLTVSVEDDLAAVVLVNCTSGPMPSAVAADLVRIVAEAEPRIPEPWRPLPDVDEGVLELAGQWYWGTQAFVLRLTVDGGVSLEPLSGVGRRARLRANGDGTWTGLDGYYAGELLKAVRRPDGSVSHLDLGSFVFTRQPYDEGAPVPGGVDPEGWRGIP	failed
GYNRRFDAGFVAARAAVASGELGALHTVRSTTLDPAPPPPAYVAASGGIFRDCSVHDFDIIRWVTGREVVEVYATGGNRGADYIAAAGDADTTAAVLTLDDGTLAVVSNSRHNARGHDVRMELHGFRDSIAVGLEDRLPLRSVEPGTSFPAGTPHDFFMDRFAAAYRAELTAFTEVVAGRRPSPCTVADALEAGWIAEACTLSLHSHRPVTVEEVRRQS	failed
MVSRRLQDSANRLFGKAATFIENGKYDRALESLKDVDKIMKKEKDPEISFHTLFLKGYTISKAGDPEGALEFYGEALKIIEPLFSGEPGKKNYQKFISNMIEEIGSSFDELNDEERAEELLGPMEKQFEKVVRTFEELVKSDPENQEYLSGFLEIIGSMGVCYQAGQLMDQAVKLFDKKIDIYEKLFELESGETDLLGDFDEDIELYGYLFRNYGHLKEAEGNYFRAAGIYRKMIEKDPENSMAEYYLSYTYSYHGSLYSGMENLEKAERYYEEAVELMDKGYKEFPEDYAYAVSLANIHESYGVAFSNRKYLEKSIANYTKAREIYRDLIINHPSEFARNKKIAMYLDDLGDRFSKIGEFEAAELCYKDKLDVFRNLHDEDPEDLNPIFEISDTYEELGDIFAEHGETGKAKAYYEKEIEIYESLLETEPDALDYKTYMAEVQATIGKLYLDEEPEKAQKYFEDALSVLENNFELEPEMDIHYSVLKKVLNNFIQLFKNQEEHEKAAEMYSKLLAVQQRMLDLNPEEREYKEDLAVTYTNLALLHSERGDIEQEARYHRLALDIHEKILEESSDYPLFLQRFVTGIYLLGSRLKLDEESRGKESGIVKEYLELAKKAENKLYAVKPEIMEDKELIAEIAEKMGISFRENEMYEEAIEEFKRSLAIREKLHEKNPENLNYLTVLEGIFHQMGITFLAQKDLEKAKETLEKAMDLNAKLLETDPEDFNYLARSSMIFETYSSVLENMGKSEEAAKYLAKAEEINAKLGYSNE	failed
MNFSLVHLRENVRRVSVTVAIGAGALLISGPFFTAHTAEATETYVLAESPEFYQDNVTDYTGQISSSDITNIQAAIDDVKASEQKVIFVVFLSSFDGVDPETWTQQALQANGGGNVLIYALAPEERQYGIQGGTQWTDAELDAANNAAFQALSQEDWAGSALALAESVGSSSSSSSGSSSSSDFSGAWLAAAGVGTVAAGGGIWAYSRSRKKKTSAATLEDAREIDPRDTNRLMQLPMETLEHLAQEELTSTDDSIRRGKEELAIATSEFGPERTRSFNRAMNHSTGTLQKAFEIQQRLNDSIPESEAERQSMLVEIISSCGQADDALDAEAQNFADMRNLLINAGSKLDALTQKSVDLRTRLPKAQETLAGLRTRYSAEVLESIDDNVDLASASLDEAEEVLPQAYEIESMPAGEQGGLIDAIRHIEHAITTADKLLAGVEHADENISTAKANVADLIQEISDEINEAGQLKQSAGADGARADWASLDDAVRAASAALITASADAEKDPLGTYTELVDVDSALDTQLDTLRATAADQARQLRVFDQQLQSARSQIQKAEDLISTRGRIVKSEARTHLANAQKLYAMAQQNRTRDTRAGIDYGRQAAVAAQRASKSAQNDITTYNNRHNSGGGTTGAIVTGMVINSILNSGRGGGFGGGGGFGGGGGGFSGGGGGGGGFRGGRF	failed
